# Data as given in the domain aggregation screens of Martell et al. (2025).
# Assay: soluble fraction after stress (log2 fold change); higher = more stays soluble; pooled small domains, quantitative proteomics
# Settings: stress: pH 4
# Outline: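 With high-throughput quantitative proteomics, pooled custom libraries of small protein domains were measured after pH 4 stress. Each domain's soluble amount after the stress gives a fold change taken as aggregation propensity. Higher log2 values mean more of the domain stayed soluble.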
row,Sequence,soluble fraction (log2)
1,HMEVGKRIAEIRKENRMSQEQFGQLFHVTRQTVSNWENAKSYPDLQTLVKISELFEITMDELLK,-0.454
2,HMEVKVSGHLEAIGGVYHMKLSWIDDAGKRRRKSKSTGLAERGNKKRANDMLIDFMREQEAEIAASGD,≥ 0.43
3,HMEVLSKRGSTGTEVINIQKKLKNWGYYTGSVDGIYGKLTEEAVRYFQRTNGLTVDGIAGKNTLAAMGIA,0.399
4,HMEVNLEPLIALLRKHRDLDLSGYSKSTLGRRITYFMGLNKISSIDELGRRLAEDDLLFQEFLDKLT,-0.818
5,HMEVSLEDKMDYLTNYATTHKNFSFRNLLESSSGKIEVIVTFLAILELMKMGRINISQEHIFDDIIIESRI,-1.8
6,HMEVSTRQVRAALRDIIEAEDKKRPLSDEAITARLREQGLPVARRTVAKYREQMGILAARLRK,0.0717
7,HMEVVRVEPGATVRDLGEALGVPPTRIIQILMGLGEMKTVTQTLSTEEIELVAEELGRRVEV,-0.248
8,HMEWVVVPDVRRQLLPEAQRRVNKARLRLEVAGGWPAEPLLAMVVDQKPGPETRVPLNSIVVVVVRNLP,-0.0893
9,HMEYELYALKEEVLKRLTREDRELLILLFEERRTIHAVAQRLGLSDSAVYKRRTQLVNKVKVIASMLM,-0.592
10,HMEYKNYYDSPVGRLELLSDGVSLTAVLFENQQGDGTREENTSLAIFKEATQWLDAYFKGDNPEITIPL,0.33
11,HMEYKTGIINTNKVRVRNAADADATVIFAINKDIKVKILAEENGFYKIGVSVKNRGNGEDLIGFVKKELIT,0.3
12,HMEYQTVEKSEAEQIIQELEKAERLALKVYSKNDIITGISVSDGKSYYFSAELVPMLKNIIENPEIKIL,-1.14
13,HMEYRVRDKMTDILELLTEHRGRIALRDAFPTGTREELLAAFLALLELTKMQTVIVYQDRLYDDIQIVMK,0.22
14,HMEYSTLEIYSQTKKDLIEKSPHLNKVVYDKDDGYIYLLSFEKEDDLTSFKSNIENDSDIKRIEANV,-0.91
15,HMEYTVNRLAQISGVSKRTLRYYDEIGLLRPERVNPNGYRIYGQMQVDLLQQILFYRELGLPLEEIREII,-0.639
16,HMFAATGVVNAPSGLVLRETASKGGNPLATVPDKAQVEIVEEDGEWYKVKVNEQTGYLFAEFVNKTE,-0.13
17,HMFAQDQLFKKDNSKVDVKILEINTTEIKYKLFTYQDGPTITVAKKDVALIIYQNGVHEVIT,-1.17
18,HMFAVPAPEVDDILSEKKVDVLLLGPQVRYLLEQFTEKLKDKNIPIGVIPMVDYGMMNGSKVLALAEELIG,-0.288
19,HMFDFGNHLRMLREKHGISQEELGRRVGRAGSVISNYENNIKIPTLDVLTTMARIYDVSLDYLVG,-1.06
20,HMFDFNNLSSLSDVELSVYRFVVNNPEKVAYMRVRDIAQKTHVANSSVMRFVHKIGFASFPEFKAYLKNIN,-0.0916
21,HMFDITKEVLKQSGLYNLYKNDESLEGINRIQNIEELLNGIKDFVENNEKSQASVSSFLQDVALATDQ,-0.217
22,HMFDKVSVNNLAEAIGRLDGIYQDVLRLYYVHELPSKEIGKILNINHLTVNTRLKRAREKLFKMLKEE,-0.812
23,HMFDNPLSERDKEILNHISMGKSNKEIANQVGLAEQTIKNTISVILDKTFTSNRAQAASMATKNKW,-0.0659

row,Sequence,soluble fraction (log2)
1,HMFDPTDLPEKQLMVYEIIKSNNGINMTNIASLLGFNKTTVDNAIRALKKKEIVVFKGTNRSGGYFNT,0.193
2,HMFEDEYLETMYAFYETDPQALVRTGDLASSLKVSPASATEMVQRLASKGFVDYIPYKGASLTELGLAM,-0.438
3,HMFEDYLRMKGLSIVSFSKQTGIPISTLRNLNKIRYDKWKIRYLEELSNVLNKTIQEIIEELKNMG,-1.32
4,HMFEFFKGIYSISLLKKDGIFFVTFKDENKEAVKHIFPEKPTALELGIKVMEMFEYKERYDGII,-0.226
5,HMFEPLTDREREVLQALADGLSDKEIAERLYISPATVRTHITAILGKLDANSRLQAVVVAARHNLVTL,-0.926
6,HMFERISELLTDEELAVYKRGRNANASSVPKHADIADYRRATGVEALFGYLYIKGEIDRINQLFELA,-0.635
7,HMFESQYIGKIATAITDISAFSGRLKIYDENWEARTLGEDAPEIKKGAKVKIVRHDDLTMFVEKK,0.087
8,HMFETLVLALAQAWPAERGPVEALQFEGGRLSLQRSGFADEQVEALRQRLSSEGWTLQTEQGRLILNKAG,-1.11
9,HMFFDSDTDIQNALNAENSIKKYQLFRTQTLYNSAQSDIDFVNQPEVKAKLFDALENLKNKLGFLAEPT,-0.4
10,HMFGIEIPEEAGKLQDYTLTDDDLEGGNTLKEIQFPQGARVVIIRRDDKFIIPDGSVELQSGDQLLIIYGE,-1.81
11,HMFGSKDVKRAIEDYAAAMSSQPRALSAPQRKVLIRHLATSGLLQLRGAAKIVADELGISRASVYNALKV,0.193
12,HMFHDPTMEETLINLKGITNEVLSLLSSSKIKKLEDLAEMSVPELRDIVENISDEEASALIMEARKPWF,-1.81
13,HMFHGEGVQANNIQAYIVLKMAAVNGAEDALDTADEVSEKMSREDLETATQVLGQIFRKYLMELQSA,-1.12
14,HMFIKVEVPDLTGMTLTEVRKALEEKNLKMGDIRPAGQTSLVAKVINQSPQAKMVVDEYSEVSIQFEE,0.166
15,HMFIMQTVALGSEGPDVRALQSILNRIGYNAGTVDGIFGSRTRQAVIAFQRNNGLAADGVAGPATWG,-0.0509
16,HMFINITAITGNNYNTPDAARNALPNTYNKKIGLVFTYRDLTNRYRVYLYNSETSNYIPLDSYM,-1.28
17,HMFIPGDSVRVHVKVVEGSNERIQMFEGVVIARQGSGVRENFTVRRISYGVGIERTFPVHSPRL,-0.62
18,HMFISVDGLIHMGRTHLVILGGVEFARGDMIPETGEVVKSIGADSVVLELPDTGMRRTLNFV,-1.91
19,HMFKINNIIVSGLSEKSNLQTSEEIKNILFENIFFIKKDVLFKILEKNNLINSFEIKKIYPDTIEVKIKKT,-0.104
20,HMFKITNTLNKTAEVYLTIPENKKGKGKIMISVNGAFHELEAMTENDKIQSGAVVKVVRIENDNILIVET,-1.96
21,HMFKMRVNGKEVIGMAITAKPQANPIDVADEIKKFVIDANTKLPSTMKLEVLYDATGIFRASISEVIS,-0.86
22,HMFLDKDTLNQLYRFGIALTGNEQDSQDVLHTAIERFLRNKPQQINQQAAYIRTIMRNYWYDELRKLKTQ,-0.0981
23,HMFLPETEVKSFFHRGITKISPSLAMDIADFFRMPFAVILKRALALEVISDEQYRSFMTVKPEHV,-0.0531

row,Sequence,soluble fraction (log2)
1,HMFLSQQDINRANAASVTDMGDIIRRTFERNAAEINGLELSDAEKKDAVKQMATLATTALKTAAGAVNPY,0.152
2,HMFLSSEERRERIIEVLRQQDEVTVVELSHRLGVSEVTTRKDLQQLEEQGYLTRVRGGAVVSGRGQL,-0.458
3,HMFMNFAEHLMALRKQRGWSQEELGSQIGVTRQTVSKWEMGQSTPELEKLVELSRLFGMSIDQLVGL,-0.00635
4,HMFNISEKLKKYRNALGLTQTEVAEKIEITKPTYASYEKGKDISIGTLKKLADLFEVSFESFFSE,-0.336
5,HMFNLFPHLSVLRNITLAPQKVKGLNRSESNEIAMSLLERVGIPEQSDKFPSQLSGGQQQRVAIARALAM,0.22
6,HMFPELSEEEQIIVSLLQKQPDGLQINTLVVESNIPVNRMSGILFELEMKGIIRMAAGGVYRLL,-0.785
7,HMFQEGLVAPPAYTRPESFRGWEVPEILRSGNFPAIAKWQHEESLRLTRERRPAMLEAYERRT,-0.415
8,HMFQNYTDAVVVASKTFFYNMPDESTRKSAYLIQGDRIMVEKSQRNFVYVTFTNEASGRTTTGWLKSDDLE,-0.00722
9,HMFSDDEINRLKARDSILVNLRDSEKQVWELYTDGKTVQNIANQLNKHKQSISATIINIKNKISRKQNMLK,-0.0225
10,HMFSGVQLGQAISEAIKRKNVSQKEVADHFGVKQPSVSGWIKNGRIDKKHLDKLIDYFSDVVTPSHFGIE,0.241
11,HMFSQDQIFLRSGEKIDARVIEVTPEFIKYKSKANPEGPLYSKKITDVLLITYANGTTEVYE,-0.749
12,HMFTDAEIKQFAAAAVEVTKIQQDSTISAADKQPKMLAVVQSSGLPPEKFNQIGQAAAADPALQQRIQA,0.159
13,HMFTEPQKLVKRILNMLGHRYDDASIQARSDFQASNNYHKVQVKKKRESMEEYTAWLEEMYDAYRIN,0.0985
14,HMFTFEDMDKFESLLTTGLTDVQRRIYSLVTHDGKEYDLIAETLGISVEAVRMHMSRARKKIRENYKKID,-1.7
15,HMFTIGENIRDLRLERAITQEQLAEQLNVSAPAVSKWERGEAYPDITLVPKLAEILGVSTDKLFGVD,-0.265
16,HMFTKYSPDFKLSVILDMRKNNLGYGEVVRKYWNLDSYKESDRHRSQVRLWERIFLEEGVEGFM,-1.77
17,HMFTLDDLQATYDIFERAEQNSDAMLAFQKVITAEGLDFDLTSPQGIVDFFKGAAPTEIYDLYEAS,-0.956
18,HMFTNSTSSRQLTNSDDTLRLNISSQTRQMLPNGQPFGGSLSGKLLLVIYGATTRSIPAQTTPEKIVV,0.105
19,HMFTSVDVAPDLRTAKVFYSVLGRKKSDKEINIAINQKRKAFKKFMGPELHLKNIPDLHFYYD,0.115
20,HMFTYDLSERELTIIELVAKGLNNKELADTLFLSEGTIRNYLSTLLNKLDLRDRTQLAIFYYQHL,-2.93
21,HMFVEEGSLKKITFDTYEFNITDNLKSLRVTYQGLLPNLFREGQGVVIEGILLEQNYIQANTVF,-0.328
22,HMFVTGTTIKKLREEKRMTQGELAQMIGVSDKAVSKWETGRGLPDISLLEPLSRALGISVAELFAGQH,-0.0399
23,HMFWEGYLAARREQFLKDQQVLLGNEFRSNPDFWLEVASKEWAVVEERLSTGADVSEEVQETMGLDF,-1.5
